Experimental data taken from paper PMC12377726 (Proceedings of the National Academy of Sciences of the …, 2025).

B1: G001_gp1_V08_VRC01c_149 (antibody, V domains shown)
VH: QVQLVQSGAEVKKPGASVKVSCKTSGYTFTDYYMHWVRQAPGQGLEWMGWINPNSGGTNYAQKFQGRVTMTRDTSIRTVYMELSWLRSDDTAVFYCARHYRSSGWDFDYWGQGTLVTVSS
VL: DIVLTQSPDSLTVSLGERATINCKSSPSGLYSSNNKNYLTWYQQKPGQPPKLLIYWASTRESGVPDRFSGSGSGTDFTLTISSLQAEDVAVYYCQQYETFGGGTKVEIK
B2: G001_gp1_V08_VRC01c_158 (antibody, V domains shown)
VH: QVQLVQSGAEVKKPGASVKVSCKASGYTFTDYYMHWVRQAPGQGLEWMGWLNPNSGGTNYAQKFQDWVTMTRDTSIRTAYLELSRLKLDDTAIYYCARRIDYLDAFDIWGQGTMVTVSS
VL: EIVLTQSPGTLSLSPGERATLSCRASQSVSRRYLAWYQQKTGQAPRLLIYGASSRATGIPDRFSGSGSGTDFTLTISRLEPEDFAVYYCQQYEMFGQGTKVEIK
B3: G001_gp1_V08_VRC01c_2021-0073 (antibody, V domains shown)
VH: QVQLVQSGAEVKKPGASVKVSCKASGYTFTGYYMHWVRQAPGQGLEWMGWINPNSGGTNYAQKFQDWVTMTRDTSISTAYMELRRLRSDDTAVYYCARGMSAKWFDSWGQGTLVTVSS
VL: EIVLTQSPGTLSLSPGERATLSCRASQSFSNSYVAWYQQKPGQGPRLLIYGASSRATGIPDRFSGSGSGTDFTLTISRLEPEDFAVYYCQQYETFGQGIKLEIT
B4: G001_gp1_V08_VRC01c_2021-0057 (antibody, V domains shown)
VH: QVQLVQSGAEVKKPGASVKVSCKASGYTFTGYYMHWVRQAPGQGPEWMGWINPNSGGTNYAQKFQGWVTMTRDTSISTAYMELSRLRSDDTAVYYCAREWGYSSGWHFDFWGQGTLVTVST
VL: EIVLTQSPGSLSLSPGERATLSCRASQSGSSRYLAWYQQKPGQAPRLLIYGASNRATGIPNRFSGSGSGTDFVLTISRLEPEDFAVYYCQQYESFGPGTKVDIK
B5: G001_gp1_V08_VRC01c_153 (antibody, V domains shown)
VH: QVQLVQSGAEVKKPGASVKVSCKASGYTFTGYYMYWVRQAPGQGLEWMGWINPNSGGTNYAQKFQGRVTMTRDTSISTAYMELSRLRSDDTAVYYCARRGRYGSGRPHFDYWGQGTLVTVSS
VL: DIQMTQSPSSLSASVGDRVTITCQATQDISNYLNWYQHKPGKAPKLLIYDASTLVTGVPSRFSGSGYGTDFTFTISSLQPEDIATYYCQEYLLFGGGTKVEIK
B6: G001_gp1_V08_VRC01c_2021-0078 (antibody, V domains shown)
VH: QVQLVQSGAEVKKPGASVKVSCKASGYTFTGYYMHWVRQAPGQGLEWMGWINPNSGGTNFAQKFQGRVTMTRGTSITTTYMELSRLRSDDTAVYYCARVSQYRTGWYFGYWGQGTLVTVSS
VL: DIQMTQSPSSLSASVGDRVTITCQASQDISNYLNWYQQKPGKAPKLLIYDASNLETGVPSRFSGSGSGTDFTFTISSLQPEDIATYYCQQYEFFGGGTKVEIK
B7: G001_gp1_V08_VRC01c_2021-0053 (antibody, V domains shown)
VH: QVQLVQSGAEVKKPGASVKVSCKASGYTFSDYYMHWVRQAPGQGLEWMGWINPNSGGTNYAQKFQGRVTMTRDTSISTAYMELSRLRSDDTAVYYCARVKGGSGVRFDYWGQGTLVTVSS
VL: DIQMTQSPSSLSASVGDRVTITCQASQDISNYLNWYQQKPGKAPKLLIYDASNLETGVTSRFSGSGSGTDFTFTISSLQPEDIATYYCQQYVTFGGGTKVEIK
B8: G001_gp1_V08_VRC01c_2021-0055 (antibody, V domains shown)
VH: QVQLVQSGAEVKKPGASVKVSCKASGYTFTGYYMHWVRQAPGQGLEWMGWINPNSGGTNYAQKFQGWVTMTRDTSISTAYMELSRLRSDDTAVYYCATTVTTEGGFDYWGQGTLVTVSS
VL: QSALTQPPSASGSPGQSVTISCTGTSSDVGGYNYVSWYQQHPGKAPKLMIYEVSKRPSGVPDRFSGSKSGNTASLTVSGLQAEDEADYYCSSYEVFGTGTKVTVL
B9: G001_gp1_V08_VRC01c_2021-0056 (antibody, V domains shown)
VH: QVQLVQSGAEVKKPGASVTVSCKASGYTFTGYYMHWVRQAPGQGLEWMGWINPNSGGTNYAQKFQDWVTMTRDTSISTAYMELSRLRSDDTAVYYCATALGGSPGRIWSMDVWGQGTTVTVSS
VL: QSALTQPASVSGSPGQSITISCTGTSSDVGGSNYVSWYQQHPGKAPKLLIYDVSNRPSGVSSRFSGSKSGNTASLTISGLQAEDEADYYCSSYEVFGTGTKVTVL
B10: G001_gp1_V08_VRC01c_2021-0068 (antibody, V domains shown)
VH: QVQLVQSGAEVKKPGASVKVSCKASGYTFTGYYLHWVRQAPGQGLEWMGWINPNSGGTNYAQKFQGWVTMTRTTSISTAYLELSRLRSDDTAVYYCARSVYFDSSGFYYGYWGQGTLVTVSS
VL: DIQMTQSPSTLSASVGDRVTITCRASQSISSWLAWYQQKPGKAPKLLIYKASSLESGVPSRFSGSGSGTEFTLSISSLQPDDFATYYCQQYETFGQGTKVEIK
B11: G001_gp1_V08_VRC01c_2021-0069 (antibody, V domains shown)
VH: QVQLVQSGAEVKKPGASVKVSCKASGYTFTDYYIHWVRQAPGQGLEWMGWINPNSGGTNYAQKFQDWVTMTRDTSVGTAYMELSRLRSDDTAVYYCARGIWSSWHFDVWGRGTLVTVPS
VL: DIQVTQSPSTLSASVGDRVTITCRASQSISNSLAWYQQKPGKAPNLLIYKASILESGVPSRFSGSGSGTEFTLTISSLQPDDFATYYCQQYETFGQGTKVEVT
B12: G001_gp1_V08_VRC01c_2021-0076 (antibody, V domains shown)
VH: QVQLVQSGAEVKKPGASVKVSCKASGYTFTDYYIHWVRQAPGQGLEWMGWINPNSGGTNYARKFQGRVTMTRATSISTVYMELSRLRSDDTAVYYCARGYCTVGWCFDLWGRDTLVTVSS
VL: DIQMTQSPSTLSASVGDRVTITCRASQSIGNWLAWYQQKPGRAPKLLIYQASSSESGVPSRFSGSGSGTEFTLTISSLQPDDFATYYCQQYETFGQGTKVEIK
B13: G001_gp1_V08_VRC01c_2021-0075 (antibody, V domains shown)
VH: QVQLVQSGAEVKKPGASVKVSCKASGYTFTDYYIHWVRQAPGQGLEWMGWINPNSGGPNYAQKFQDWVTMTRDTSISTAHMELSSLRSDDTAVYYCARGVAHTGFEFGYWGQGTLVTVSS
VL: DIQMTQSPSTLSASVGDRVTITCRASQSISSWLAWYQQKPGKAPKLLIYKASTLESGVPSRFSGSGSGTEFTLTINSLQPDDFATYYCQQYETFGQGTKVEIK
B14: G001_gp1_V08_VRC01c_2021-0063 (antibody, V domains shown)
VH: QVHLVQSGAEVKKPGASVKVSCKASGYTFTGYYMHWVRQAPGQGLEWMGWINPNSGGTNYAQKFQGRVTVTRDTSISTAYMELSRLRSDDTAVYYCATQTHSSGWFVGNNWHFDLWGPGTLVTVSS
VL: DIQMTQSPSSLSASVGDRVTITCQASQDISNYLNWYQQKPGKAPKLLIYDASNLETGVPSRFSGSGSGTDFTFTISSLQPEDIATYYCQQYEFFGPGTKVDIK
B15: G001_gp1_V08_VRC01c_2021-0066 (antibody, V domains shown)
VH: QVQLVQSGAEVKKPGASVKVSCKASGYTFTGYYMHWVRQAPGQGLEWMGWINPNSGGTNYALKFQDWVTMTRDTSISTVYMELSRLRYDDTAVYYCARVNGDYGWNFDLWGRGTPVTVSS
VL: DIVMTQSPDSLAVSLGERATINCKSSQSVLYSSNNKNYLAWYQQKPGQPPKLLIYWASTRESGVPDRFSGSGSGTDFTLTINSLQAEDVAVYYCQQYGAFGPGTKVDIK
B16: G001_gp1_V08_VRC01c_2021-0052 (antibody, V domains shown)
VH: QVQLVQSGAEVKKPGASVKVSCKASGHTFSGYYMHWVRQAPGQGLEWMGWINPNSGGTNYAQKFQGRVTMTRDTSISTAYMELSRLRTYDTAVYYCARAYSSGWRFGWGQGTMVTVSS
VL: DIQMTQSPSSLSASVGDRVTITCQASQDITKYLNWYQQKPGQAPKLLIYDASNLETGVPSRFSGSGSGTYFTFTISSLQPEDIATYYCQQYDNFGGGTKVEIK
B17: G001_gp1_V08_VRC01c_2021-0077 (antibody, V domains shown)
VH: QVQLVQSGAEVKKPGASVKVSCKASGYTFTDYYMHWVRQASGQGLEWMGWINPNSGGTNYAQEFQGRVTMTRDTSISTAYMELSRLRYDDTAVYYCASGGYSRTWSFNIWGLGTMVTVSS
VL: DIQMTQSPSSLSASVGDRVTITCQASQDISTYLNWYQQKPGKAPKLLIYDATNLETGVPSRFSGSGSGTDFTFTISSLQPEDIATYYCQQYETFGQGTRLEIK
B18: G001_gp1_V08_VRC01c_2021-0074 (antibody, V domains shown)
VH: QVQLVQSGAEVKKPGASVKVSCKASGYTFTDYYMHWVRQAPGQGLEWMGWINPNSGGTNYAQKFQGWVTMTRDTSVSTAYMELRRLRSDDTAVYYCASGRGSSGWALDYWGQGTLVTVSS
VL: DIQMTQSPSSLSASVGDRVTITCQASQDISNYLNWYQQKPGKAPKLLIYDASILETGVPSRFSGSGSGTEFTFTISSLQPEDIATYYCQQYEAFGQGTKLEIK
B19: G001_gp1_V08_VRC01c_2021-0065 (antibody, V domains shown)
VH: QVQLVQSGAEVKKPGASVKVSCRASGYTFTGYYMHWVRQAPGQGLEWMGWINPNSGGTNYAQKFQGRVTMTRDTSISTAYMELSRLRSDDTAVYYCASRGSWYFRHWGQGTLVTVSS
VL: DIQMTQSPSSLSASVGDRVTITCQARHDISKYLNWYQQKPGKAPKLLIYDASDLETGVPSRFSGSGSGTDFTFTISSLQPEDIATYYCQQYDSFGGGTRVEIK
B20: G001_gp1_V08_VRC01c_151 (antibody, V domains shown)
VH: QVQLVQSGAEVKKPGASVKVSCKASGYTFTDYYMHWVRQTPGQGLEWMGWMNPKSGGTNYALQFQGRVTMTRDTSISTAYMELSRLRSDDTAIYYCATKAYTNRAFDIWGQGTMVTVSS
VL: EIVLTQSPGTLSLSPGERATLSCRASQSVNSNSLAWYQQKPGQAPRLLIFAAYTRATGIPDRFSGSGSGTDFTLTISRLEPEDFAVYYCQQYDTFGQGTKVEIK
B21: G001_gp1_V08_VRC01c_2021-0059 (antibody, V domains shown)
VH: QAQLMQSGAEVKKPGASVKVSCKASGYTFTDYYMHWVRQAPGQGLEWMGWINPNSGGTNYAQKFQGWVTMTRDTSISTAFMELSRLRSDDTAVYFCATTNRYTSTWLFDYWGQGTLVTVSS
VL: EIVLTQSPGTLSLSPGERATLSCRASQSVSSSYLAWYQQKPGQAPRLLIYGASNRATGIPDRFSGSGSGTDFTLTISRLEPEDFAVYYCQQYESFGQGTKLEIK
B22: G001_gp1_V08_VRC01c_2021-0072 (antibody, V domains shown)
VH: QVQLVQSGAEVKKPGASVKISCKASGYTFSGYYMHWVRQAPGQGLEWMGWINPNSGGTNYAQKFQDWVTMTRDTSISTVYMELSRLRSDDTAVYYCAREWCSGGTCYSGPTFDFWGQGTLVTVSS
VL: EIVLTQSPGTLSLSPGERATLSCRASQSVSSNYLAWYQQKSGQAPRLLIYGASSRATGIPDRFSGSGSGTDFTLTISRLEPEDFAVYYCQHYETFGQGTKVEIK
B23: G001_gp1_V08_VRC01c_2021-0062 (antibody, V domains shown)
VH: QVQLVQSGAEVKKPGASVKVSCKASGYTFTGYYIHWVRQAPGQGLEWMGWINPNSGGTNYAQEFQDWVTMTRDTSISTAYMELSRLSSDDTAVFYCARAKYYDAWSGYYFDFWGQGTLVTVSS
VL: DIQMTQAPSTLSASVGDRVTITCRASETTSSWVAWYQQKPGKAPKVLIYDASSLQSGVPSRFSGSGSGTEFTLTISSLQPDDFATYYCQQYNTFGGGTKVEIK
B24: G001_gp1_V08_VRC01c_2021-0060 (antibody, V domains shown)
VH: QVQLVQSGAEAKKPGASVKVSCKASGYTFTGYYMHWVRQAPGQGLEWMGWINPNSGGTNYAQKFQDWVTMTRDTSISTAYMELNRLRSDDTAVYYCATTGGTAVTAAHRWYFDLWGRGTLVTVSS
VL: EIVLTQSPGTLSLSPGDRATLSCRASQSVSSSYLAWYQQKPGQAPRLLIYGAASRATGIPDRFSGSGSETDFTLTISRLEPEDSAVYYCQHYEGFGQGTRLEIK
B25: G001_gp1_V08_VRC01c_2021-0081 (antibody, V domains shown)
VH: QVQLVQSGAEVKKPGASVKVSCKASGYTFTDHYMHWVRQAPGQGLEWMGWINPNSGGTNYAQKFQGWVTMTRDTSVSTAYMEVRRLRSDDTAVYYCAIIHYRRSSWEFAYWGQGTLVTVSS
VL: DIQMTQSPSSLSASVGDRVTVTCQASQDISNSLNWYQQKPGKAPKLLIYGASNLETGVPSRFSGSGSGTDFTFTISSLQPEDIGTYYCQQYETFGQGTKLEIR

Each binder was assayed against eOD-GT8 (engineered outer domain germline-targeting version 8), monomer (HIV-1 gp120 engineered outer domain, …).
B1: binds.
B2: binds.
B3: binds.
B4: binds.
B5: binds.
B6: binds.
B7: binds.
B8: binds.
B9: binds.
B10: binds.
B11: binds.
B12: binds.
B13: binds.
B14: binds.
B15: binds.
B16: binds.
B17: binds.
B18: binds.
B19: binds.
B20: binds.
B21: binds.
B22: binds.
B23: binds.
B24: binds.
B25: binds.
